Data: IntAct's records for PubMed 16595635

Experiments:
[1] = biological target: tnfl6_human FASLG (UniProt P48023)
[2] = biological target: tnfl6_human FASLG (UniProt P48023); remark: listed apart in the source
[3] = biological target: tnfl6_human FASLG (UniProt P48023); remark: listed apart in the source

Sequence of UniProt P48023 (P48023 whole entry): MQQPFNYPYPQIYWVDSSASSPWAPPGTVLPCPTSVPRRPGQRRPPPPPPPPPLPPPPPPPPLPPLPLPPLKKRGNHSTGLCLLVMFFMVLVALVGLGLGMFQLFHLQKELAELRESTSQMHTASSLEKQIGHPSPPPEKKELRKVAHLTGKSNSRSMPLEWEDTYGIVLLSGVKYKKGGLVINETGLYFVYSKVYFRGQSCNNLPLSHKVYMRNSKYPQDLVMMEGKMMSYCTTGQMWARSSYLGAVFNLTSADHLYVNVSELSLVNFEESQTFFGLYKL

Row | effect of a mutation on the interaction [1] | effect of a mutation on the interaction [2] | effect of a mutation on the interaction [3] | Substance
1 | disrupting interaction strength | disrupting interaction strength |  | SH2/SH3 adapter protein NCK1 (Homo sapiens) (from UniProt P16333-1) W38K;W143K;W229K
2 |  |  | disrupting interaction strength | SH2/SH3 adapter protein NCK1 (Homo sapiens) (from UniProt P16333-1) W143K
3 |  |  | disrupting interaction strength | SH2/SH3 adapter protein NCK1 (Homo sapiens) (from UniProt P16333-1) W229K
